Reference: patent publication US20050215472A1
Values joined by “and” are separate entries in the source; they are usually repeats but may differ in a detail not shown here. Equal values may be shown once.

What was measured:
[1] = molecular target: prostate specific membrane antigen (PSMA), full-length human (human) (UniProt Q04609); assay: cell-bound fraction of 111In mAb, average
[2] = molecular target: prostate specific membrane antigen (PSMA), full-length human (human) (UniProt Q04609); assay: cell-bound fraction of 111In mAb, PSMA-3T3 cells
[3] = molecular target: prostate specific membrane antigen (PSMA), full-length human (human) (UniProt Q04609); assay: cell-based or functional assay

Sequence of prostate specific membrane antigen (PSMA), full-length human (human) (Q04609 whole entry): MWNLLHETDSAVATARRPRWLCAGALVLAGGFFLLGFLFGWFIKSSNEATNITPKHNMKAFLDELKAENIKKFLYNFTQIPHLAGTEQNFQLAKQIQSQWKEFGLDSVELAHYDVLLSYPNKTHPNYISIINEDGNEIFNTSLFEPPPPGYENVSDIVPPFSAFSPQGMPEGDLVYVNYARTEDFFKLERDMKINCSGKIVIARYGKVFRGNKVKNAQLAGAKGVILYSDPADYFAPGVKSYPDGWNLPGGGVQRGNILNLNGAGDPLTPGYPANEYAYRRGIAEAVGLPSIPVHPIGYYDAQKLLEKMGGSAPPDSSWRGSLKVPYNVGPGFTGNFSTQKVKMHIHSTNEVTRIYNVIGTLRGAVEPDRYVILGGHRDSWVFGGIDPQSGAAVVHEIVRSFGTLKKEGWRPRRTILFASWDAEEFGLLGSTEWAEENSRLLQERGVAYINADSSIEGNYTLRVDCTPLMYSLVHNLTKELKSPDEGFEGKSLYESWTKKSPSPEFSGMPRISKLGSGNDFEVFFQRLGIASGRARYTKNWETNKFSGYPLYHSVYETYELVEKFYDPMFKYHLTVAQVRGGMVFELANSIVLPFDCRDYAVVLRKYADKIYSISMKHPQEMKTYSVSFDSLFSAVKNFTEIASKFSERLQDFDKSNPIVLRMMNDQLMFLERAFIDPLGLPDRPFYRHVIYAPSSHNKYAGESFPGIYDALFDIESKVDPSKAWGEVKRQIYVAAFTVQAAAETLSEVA

Immunoreactivity (%), average [1] [%]	Immunoreactivity (%) [2]	Substance	LD50, immunotoxin (Mab-Zap saporin) cytotoxicity on C4-2 cells [3] [pM]	LD50, immunotoxin (Mab-Zap saporin) cytotoxicity on PSMA-3T3 cells [3] [pM]
56.7	58.5% and 54.9%	111In radiolabeled CHX-A''-DTPA mJ591 (antibody)		
		mAb J591 (antibody)	88.2	89
